Reference: patent US20150284428A1 (INTERK PEPTIDE THERAPEUTICS, published 2015)

Target: T1, cytoplasmic domain of β6 having the amino acid sequence HDRKEVAKFEAERSKAKWQTGTNPLYRGSTSTFKNVTYKHREKQKVDLSTDC
T1 construct: Integrin β6 subunit cytoplasmic domain; also called β6 domain; cytoplasmic domain fragment of β6
T1 chain: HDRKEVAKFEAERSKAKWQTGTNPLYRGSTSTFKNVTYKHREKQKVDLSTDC
Experiment: binding assay of MAP kinase fragments with β6 cytoplasmic domain, FIG. 4

HRDLKPSNLAVNEDCELKILDFGLAR (also called fragment of p38 MAP kinase) [p38 MAP kinase fragment HRDLKPSNLAVNEDCELKILDFGLAR]
binding result: binds
